The values below come from patent publication US20090203760A1 (UNIVERSITY OF QUEENSLAND, published 2009).

Bridges are numbered along the chain shown (N, C = ends). Where no end group is shown, it is not given here. [ ]: non-standard residue; d: D form. NMeF = CN[C@@H](Cc1ccccc1)C(=O)O; dCha = N[C@H](CC1CCCCC1)C(=O)O

Assay [1] deals with human C5a receptor (C5aR) on intact human polymorphonuclear leukocytes (PMNs) (human) (UniProt P21730). The experiment in a line: cell-based or functional assay.
Assay [2] shares this target. Nature of the assay: 50% inhibition of [125I]C5a binding to intact PMNs.
Assay [3] addresses T1, human C5a receptor (C5aR) on intact human polymorphonuclear leukocytes (PMNs) (human, UniProt P21730 1-350).
T1 construct: whole, on cells; Native receptor on fresh human PMNs; not a recombinant construct; also called PMN C5aR
T1 sequence (looked up): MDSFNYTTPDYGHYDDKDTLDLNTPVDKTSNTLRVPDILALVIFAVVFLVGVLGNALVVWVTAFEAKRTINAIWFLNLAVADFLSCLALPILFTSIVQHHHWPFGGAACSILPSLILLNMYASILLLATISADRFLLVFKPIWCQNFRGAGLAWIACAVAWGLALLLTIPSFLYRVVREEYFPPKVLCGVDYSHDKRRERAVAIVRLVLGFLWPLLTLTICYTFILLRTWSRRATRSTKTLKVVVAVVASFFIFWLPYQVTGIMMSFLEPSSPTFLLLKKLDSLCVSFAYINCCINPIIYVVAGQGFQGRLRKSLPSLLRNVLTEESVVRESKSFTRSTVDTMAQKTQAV
Nature of the assay: competition with 125I-C5a for binding to intact human PMNs, 4 °C.

Assay [4] concerns the target T1, human C5a receptor (C5aR) on intact …. Nature of the assay: unlabelled C5a competing with 125I-C5a for binding to intact human PMNs, 4 °C.
Assay [5] has the same target. Nature of the assay: cell-based or functional assay.
For assay [6] the target is unchanged. The experiment in a line: cell-based or functional assay. This is another data set of the same source.
The target is the same in assay [7]. Nature of the assay: 50% inhibition of [125I]C5a binding to intact PMNs; column head prints 'IC50 (M)', the pD2 shows µM.
In assay [8] the target is human C5a receptor (C5aR) on intact human polymorphonuclear leukocytes (PMNs) (human) (UniProt P21730). The assay is described as above.

In assay [1], AcF-[KPdChaWr] (peptide) showed a pD2: 50% inhibition in the ability of C5a (100 nM) to cause the release of MPO from PMNs of 7.07.

In assay [1], F-[KPdChaWr] (peptide) displayed an IC50: 50% inhibition in the ability of C5a (100 nM) to cause the release of MPO from PMNs of 2.8 µM and a pD2: 50% inhibition in the ability of C5a (100 nM) to cause the release of MPO from PMNs of 5.55. Besides, in assay [2], the 50% inhibitory concentration (IC50) amounted to 8.1 µM and the pD2 turned out to be 5.09.

For F-[OPdChaWR] (peptide), in assay [1], the IC50: 50% inhibition in the ability of C5a (100 nM) to cause the release of MPO from PMNs was determined as 0.04 µM and the pD2: 50% inhibition in the ability of C5a (100 nM) to cause the release of MPO from PMNs worked out at 7.41. Moreover, in assay [2], the IC50 is 0.06 µM and the pD2 amounted to 7.21.

F-[KPdChaWR] (peptide): in assay [1], the IC50: 50% inhibition in the ability of C5a (100 nM) to cause the release of MPO from PMNs worked out at 0.2 µM and the pD2: 50% inhibition in the ability of C5a (100 nM) to cause the release of MPO from PMNs was determined as 6.69. Further, in assay [2], the 50% inhibitory concentration (IC50) is 0.3 µM and the pD2 was found to be 6.5.

F-[OPdChaWr] (peptide): in assay [1], the IC50: 50% inhibition in the ability of C5a (100 nM) to cause the release of MPO from PMNs came to 1.6 µM and the pD2: 50% inhibition in the ability of C5a (100 nM) to cause the release of MPO from PMNs turned out to be 5.79. In assay [2], this molecule gave an IC50 of 3.1 µM and a pD2 of 5.51.

AcF-[OPdChaWr] (peptide): in assay [1], the in vitro activity as a C5a antagonist in PMNs, against 17 is 100 fold and the pD2: 50% inhibition in the ability of C5a (100 nM) to cause the release of MPO from PMNs was found to be 7.3. In assay [2], the pD2 came out at 4.6.

B1: MeFKP(dCha)WR (peptide)
peptide: [NMeF]KP[dCha]WR
notes: Linear; 7 with the chirality of Arg changed; also called ID NO:9
As for B1, in assay [3], the IC50 is 11 µM.

B2: human recombinant C5a (ligand, UniProt P01031 678-751, looked up)
chain: TLQKKIEEIAAKYKHSVVKKCCYDGACVNNDETCEQRAARISLGPRCIKAFTECCVVASQLRANISHKDMQLGR
modifications: tracer form: Hunter/Bolton labelled 125I (New England Nuclear); unlabelled competitor form: none stated
notes: mature
Take B2: the IC50 in assay [4] was determined as 0.0008 µM.

B3: MeFKP(dCha)Wr-CONH2 (peptide)
peptide: [NMeF]KP[dCha]W[dR]-NH2
notes: Linear; C-terminal amide of 7; also called ID NO:8
On to B3, for which the “antagonist activity against 7 (myeloperoxidase release from human PMNs)” value in assay [5] is about 5 fold. In addition, the “Antagonist Potency IC50: 50% reduction in myeloperoxidase secretion from human PMNs mediated by 100 nM C5a” value in assay [6] worked out at 0.5 µM. Besides, the IC50 in assay [3] came to 14 µM.

B4: AcKF-[OPdChaWr] (peptide)
peptide: KFXPXWR
modifications: N-acetyl-Lys at 1; ornithine (O) at 3; D-cyclohexylalanine (dCha) at 5; D-Arg at 7; cyclic over residues 3-7 (ornithine side chain to C-terminus)
notes: Cyclic
Take B4: the half-maximal inhibitory concentration (IC50) in assay [7] is 11 µM.

B5: MeFKPLWR (peptide)
peptide: [NMeF]KPLWR
notes: Linear; dCha replaced by Leu; also called 10; ID NO:10
As for B5, the “Antagonist Potency IC50: 50% reduction in myeloperoxidase secretion from human PMNs mediated by 100 nM C5a” value in assay [6] was over 1000 µM. In assay [3], this molecule gave a concentration for half-maximal inhibition (IC50) of 144 µM.

B6: [FWPdChaWr] (peptide)
peptide: cyclo(FWP[dCha]W[dR])
SMILES: N=C(N)NCCC[C@H]1NC(=O)[C@H](Cc2c[nH]c3ccccc23)NC(=O)[C@@H](CC2CCCCC2)NC(=O)[C@@H]2CCCN2C(=O)[C@H](Cc2c[nH]c3ccccc23)NC(=O)[C@H](Cc2ccccc2)NC1=O
In assay [8], B6 had an IC50 of 43 µM. In assay [2], this molecule returned a pD2 of 4.37.

B7: AcF-[KMdChaWr] (peptide)
peptide: FKMXWR
modifications: N-acetyl-Phe at 1; D-cyclohexylalanine (dCha) at 4; D-Arg at 6; cyclic over residues 2-6 (Lys side chain to C-terminus)
In assay [8], B7 yielded an IC50 of 15 µM. The molecule further gave a pD2 in assay [2] of 4.81.

B8: AcF-[KKdChaWr] (peptide)
peptide: Ac-FKK[dCha]W[dR]
modifications: lactam 2-C
SMILES: CC(=O)N[C@@H](Cc1ccccc1)C(=O)N[C@H]1CCCCNC(=O)[C@@H](CCCNC(=N)N)NC(=O)[C@H](Cc2c[nH]c3ccccc23)NC(=O)[C@@H](CC2CCCCC2)NC(=O)[C@H](CCCCN)NC1=O
On to B8, for which, in assay [1], the IC50: 50% inhibition in the ability of C5a (100 nM) to cause the release of MPO from PMNs is 13 µM and the pD2: 50% inhibition in the ability of C5a (100 nM) to cause the release of MPO from PMNs turned out to be 4.88. The IC50 in assay [8] was 116 µM. In assay [2], the pD2 was determined as 3.94.
